From IntAct's records for PubMed 23664119

B1: Protein bicaudal D homolog 2 (Homo sapiens), Q8TD16 (parent)
chain: MSAPSEEEEYARLVMEAQPEWLRAEVKRLSHELAETTREKIQAAEYGLAVLEEKHQLKLQFEELEVDYEAIRSEMEQLKEAFGQAHTNHKKVAADGESREESLIQESASKEQYYVRKVLELQTELKQLRNVLTNTQSENERLASVAQELKEINQNVEIQRGRLRDDIKEYKFREARLLQDYSELEEENISLQKQVSVLRQNQVEFEGLKHEIKRLEEETEYLNSQLEDAIRLKEISERQLEEALETLKTEREQKNSLRKELSHYMSINDSFYTSHLHVSLDGLKFSDDAAEPNNDAEALVNGFEHGGLAKLPLDNKTSTPKKEGLAPPSPSLVSDLLSELNISEIQKLKQQLMQMEREKAGLLATLQDTQKQLEHTRGSLSEQQEKVTRLTENLSALRRLQASKERQTALDNEKDRDSHEDGDYYEVDINGPEILACKYHVAVAEAGELREQLKALRSTHEAREAQHAEEKGRYEAEGQALTEKVSLLEKASRQDRELLARLEKELKKVSDVAGETQGSLSVAQDELVTFSEELANLYHHVCMCNNETPNRVMLDYYREGQGGAGRTSPGGRTSPEARGRRSPILLPKGLLAPEAGRADGGTGDSSPSPGSSLPSPLSDPRREPMNIYNLIAIIRDQIKHLQAAVDRTTELSRQRIASQELGPAVDKDKEALMEEILKLKSLLSTKREQITTLRTVLKANKQTAEVALANLKSKYENEKAMVTETMMKLRNELKALKEDAATFSSLRAMFATRCDEYITQLDEMQRQLAAAEDEKKTLNSLLRMAIQQKLALTQRLELLELDHEQTRRGRAKAAPKTKPATPSL

Columns and labels:
[1] = variants of: B1; conditions: with dc1i1_human DYNC1I1, O14576
[2] = variants of: B1; conditions: with rab6a_human RAB6A
[3] = variants of: B1; conditions: with rab6a_human RAB6A; remark: listed apart in the source

dc1i1_human DYNC1I1, O14576, sequence (O14576 whole entry): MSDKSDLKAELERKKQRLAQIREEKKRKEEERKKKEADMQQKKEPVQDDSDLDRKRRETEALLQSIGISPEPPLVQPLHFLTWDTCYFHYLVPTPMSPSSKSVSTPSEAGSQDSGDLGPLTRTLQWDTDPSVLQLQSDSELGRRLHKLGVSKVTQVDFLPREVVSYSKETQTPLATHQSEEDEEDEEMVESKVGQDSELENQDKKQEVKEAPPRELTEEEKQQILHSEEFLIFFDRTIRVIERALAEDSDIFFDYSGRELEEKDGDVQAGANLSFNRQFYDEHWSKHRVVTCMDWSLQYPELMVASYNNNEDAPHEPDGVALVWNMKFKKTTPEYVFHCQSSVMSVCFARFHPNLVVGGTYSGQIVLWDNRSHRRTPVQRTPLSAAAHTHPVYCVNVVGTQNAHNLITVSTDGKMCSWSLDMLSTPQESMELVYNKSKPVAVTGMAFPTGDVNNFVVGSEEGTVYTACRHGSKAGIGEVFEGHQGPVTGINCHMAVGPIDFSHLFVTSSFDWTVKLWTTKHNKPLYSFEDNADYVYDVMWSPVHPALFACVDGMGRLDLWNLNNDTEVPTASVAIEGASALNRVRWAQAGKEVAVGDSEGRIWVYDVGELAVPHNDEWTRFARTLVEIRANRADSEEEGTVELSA

S107L
effect of a mutation on the interaction [1]: increasing interaction strength | effect of a mutation on the interaction [2]: with no effect | effect of a mutation on the interaction [3]: decreasing interaction strength

E774G
effect of a mutation on the interaction [2]: decreasing interaction strength
